Fewer inactive variants are shown than the library holds.
B1: TPR 5TU (parent)
chain: GGAUCUUCUCGAUCUAACAAAAAAGACAAAUCUGCCACAAAGCUUGAGAGCAUCUUCGGAUGCAGAGGCGGCAGCCUUCGGUGGCGCGAUAGCGCCAACGUUCUCAACUAUGACACGCAAAACGCGUGCUCCGUUGAAUGGAGUUUAUCAUG

Variants of: B1
Test: polymerase ribozyme fitness, log enrichment relative to wild type (log ratio); higher = more active; in vitro selection for triplet polymerase activity
Method in brief: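 Only genotypes with ≥10 input reads and ≥1 read per output were kept after Illumina sequencing of input and output libraries. These libraries were PCR-built, transcribed mutants of each subunit of a heterodimeric triplet polymerase ribozyme, each put through one triplicate in vitro selection round with frozen incubation at −7 °C, gel excision of extended constructs, streptavidin-bead capture and RT-PCR. Fitness is a logarithmic ratio of genotype enrichment to wild-type enrichment, from inverse-variance-weighted replicate averages, with the logarithm in base 2.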

| Variant | polymerase ribozyme fitness (log ratio) |
| --- | --- |
| GGAUCUUCUCGAUCUAACAAAAAAGACAAAUCUGCCACGAAGCUUGAGAGCAUCUUCGGAUGCAGAGGCGGCAGCCUUCGGUGGCGCGAUAGCGCCAACGUUGUCAACUAUGACACGCAAAACGCGUGCUCCGUUGAAUGGAGAUUAUCAUG | ≤ -4.2 |
| GGAUCUUCUCGAUCUAACAAAAAAGACAAAUCUGCCACGAAGCUUGAGAGCAUCAUCGGAUGCAGAGGCGGCAGGCUUCGGUGGCGUGUUAGCGCCAAUGUUCUCAACUAUGACAUGCAAAACGCGUGCUCCGUUGAAUGGUGUUUAUCAUG | ≤ -4.2 |
| GGAUCUUCUCGAUCUAACAAAAAAGACAAAUCUGCCACGAAGCUUGAGAGCAUCCACGGAUGCAGAGGCGGCAGCCUUCGGUGGCGCGAUAGCGCCAACGUUCUCAACUAUGACAUGCAAAACGCGUGCUCCGUUGAAGGGAGGUUAUCAUG | -2.27 |
| GGAUCUUCUCGAUCUAACAAAAAAGACAAAUCUGCCACGAAGCUUGAGAGCAUCUUCGGAUGCAGAGGCGGCAGCCUUCGGUGGCGCGAUAGCGCCAAGGUUCUCAAUUAUGACACGCAAAACGCGUGCUCCGUUGAAUGGAGUUUAUCAUG | ≤ -4.2 |
| GGAUCUUCUCGAUCUAACAAAAAAGACAAAUCUGCCACGAAGCUUGAGAGCAUCUUCGGAUGCAGAGGCGGCAGCCUUCGGUGGCGCGAUAGCGCUAACGUUCUCAACUAUGACACGCAAAACGCGUGCUCCGUUGAAUGGAGUUUAUCAUG | -2.18 |
| GGAUCUUCUCGAUCUAACAAAAAAGACAAAUCUGCCACGAAGCUUGAGAGCAUCUUCGGAUGCAGAGGCGGCAGCCUUCGGUGGCGUGAUAGCGCCAACGUUCUCAACUAUGACACGCAAAACGCGUGCUCCGUUGAAUGGAGUUUAUCAUG | -2.33 |
| GGAUCUUCUCGAUCUAACAAAAAAGACAAAUCUGCCACGAACCUUGAGAGCAUCUUCGGAUGCUGAGGCGGCAGCCUUCGGUGCUGCGAUAGCGCCAACGUUGUCAAUUAUGACACCCAAAACGCGUGCUCCGUUGAAUGGAGUUUGUCAUG | ≤ -4.2 |
| GGAUCUUCUCGAUCUAACAAAAAAGACAAAUCUGCCACGAAGCUUGAAAGCAUCUACGGAUGCAGAGGCGGCAGCAUUUGGUGGCGCGAUAGCGCCAACGUUCUUAACUAUGACACGCAAAACGCGUGCUCCGUUGAAUGGAGUUUAUCAUG | ≤ -4.2 |
| GGAUCUUCUCGAUCUAACAAAAAAGACAAAUCUGCCACGAAGCUUGAGAGCAUCUUCGGAUGCAGAGGCGGCAGCCUUCGGUGGUGCGAUAGCGCCAACGCUCUCAACUAUGACACGCAAAACGCGUGCUCCGUUGAAUGGAGUUUAUCAUG | -2.58 |
| GGAUCUUCUCGAUCUAACAAAAAAGACAAAUCUGCCACGAAGCUUGAGAGCAUCUUCGGAUGCAGAGGCGGCAGCCUUCGGUGGCGCGAUAGCGCCAACGUUCUCAACUAUGACCCGCAAAACGCGUGCUCCGUUGAAUGGAGUUUAUCAUG | -3.17 |
| GGAUCUUCUCGAUCUAACAAAAAAGACAAAUCUGCCACGAAGCUUGAGAGCAUCUUCGGAUGCAGAGGCGGCAGCCUUCGGUGUCGCGAUAGCGCCAACGUUCUCAACUAUGACACGCAAAACGCGAGCUCCGUUGAAUGGAGUUUAUCAUG | ≤ -4.2 |
| GGAUCUUCUCGAUCUAACAAAAAAGACAAAUCUGCCACGAAGCUUGAGAGCAUCUUCGGAUGCAGAGGCGGCAGCCUUCGGUGGCGCGAUAGCGCUAACGUUCUCAACUAUGACAUGCAAAACGCGUGCUCCGUUGAAUGGAGUUUAUCAUG | -1.75 |
| GGAUCUUCUCGAUCUAACAAAAAAGACAAAUCUGCCACGAAGCUUGAGAGCAUCUUCGGAUGCAGAGGCGGCAGCCUUCGGUGGCGAGAUAGCGCCAACGUUCUCAAUUAUGACACGCAAAACGCGUGCUCCGUCGAAUGGAGUUUAUCAUG | ≤ -4.2 |
| GGAUCUUCUCGAUCUAACAAAAAAGACAAAUCUGCCACGAAGCUUGAGACCAUCUUCGGAUGCACAGGCGGCAGCCUUCGGUGGCGCGAUAGCGCCAACGUUCUCAACUGUGACACGCAGAACGCGUGCUCCGUUGAAUGGAGUUUAUCAUG | ≤ -4.2 |
| GGAUCUUCUCGAUCUAACAAAAAAGACAAAUCUGCCACGAAGCUUGAGAACAUCUUCGGAUGCAGAGGCGGCAGCCUUCGCCGGCGCGAUACCGCCAACGUUCUCAACUAUGACACGCAAAACGCGUGCUCCGUUGAAUAGAGUUUAUCACC | ≤ -4.2 |
| GGAUCUUCUCGAUCUAACAAAAAAGACAAAUCUGCCACGAAGCUUGAGAGCAUUUUCGGAUGCAGAGGCGGCAGCCUUCGGUGGUGCGAUAGCGCCAACGUUCUCAACUAUGACACGCAAAACGCGUGCUCCGUUGAAUGGAGUUUAUCAUG | -1.83 |
| GGAUCUUCUCGAUCUAACAAAAAAGACAAAUCUGCCACGAAGCUUGAGAGCAUCUUCGGAUGCAGAGGCGGCAGCCUUCGGUAGCGCGAUAGCGCCAACGUUCUCAACUAUGACACUCACAACGCGUGCUCCGUUGAAUGGAGUUUAUCAUU | -4.11 |
| GGAUCUUCUCGAUCUAACAAAAAAGACAAAUCUGCCACGAAGCUUGAGAGCAUCUUCGGAUGCAGAGGCGGCAGCCUUCGGUGGCGCGAUGGCGCCAACGUUCUCAACUAUGACACGCAAAACGCGUGCUCCGUUGAAUGGAGUUUAUCAUG | -3.4 |
| GGAUCUUCUCGAUCUAACAAAAAAGACAAAUCUGCCACGAAGCUUGAGAGCAUCUUCGGAUGCAGAGGCGGCAGCCUUCGGUGGCGCGAUAGCGCUAACGUUCUCAACUAUGACACGCAAAACGAGUGCUCCGUUGAAUGGAGUUUAUCAUG | -2.58 |
